Measured values from patent publication US12295997B2, “Prostate neoantigens and their uses” (Janssen Biotech, Inc., priority 2020, dated 2025).

System: CD8+ and CD4+ T cells (autologous CD3+ Pan-T cells isolated from human normal PBMCs)
Assay: Exogenous autologous normal donor restimulation assay (15-mer overlapping peptide pools on CD1c+ dendritic cells, TNFα/IFNγ flow cytometry)
Type: cell-based
Conditions: 15-mer overlapping peptide pool; for Maximum Fold Change Over Background CD4+ cells / Maximum Fold Change Over Background CD8+ cells / Maximum Frequency of TNFα/IFNγ Double Positive CD4+ T cells / Maximum Frequency of TNFα/IFNγ Double Positive CD8+ T cells: Table 25; for Maximum Fold Change Over Background CD4+ cells: TNFα+IFNγ+ CD4+ T cells; for Maximum Fold Change Over Background CD4+ cells / Maximum Fold Change Over Background CD8+ cells: highest fold change over negative control across normal donors; for Maximum Fold Change Over Background CD8+ cells: TNFα+IFNγ+ CD8+ T cells; for Maximum Frequency of TNFα/IFNγ Double Positive CD4+ T cells / Maximum Frequency of TNFα/IFNγ Double Positive CD8+ T cells: highest frequency across normal donors; for Max. Fold Change over background CD4+ TNFαINFγ double positive DP / Max. Fold Change over background CD8+ TNFαINFγ double positive DP / Max. Frequency of CD4+ TNFαINFγ DP / Max. Frequency of CD8+ TNFαINFγ DP: Table 28, additional neoantigens, highest across normal donors
How it was run: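 Readout was intracellular TNFα/IFNγ flow cytometry on live CD3+ CD8+ and CD4+ cells after day-11 peptide restimulation. Stimulators were CD1c+ dendritic cells loaded with overlapping 15-mer peptide pools (2.5–10 μg/mL), irradiated, and cultured 12 days with autologous normal-donor Pan-T cells plus IL-15/IL-2. A response counted when ≥3-fold over DMSO control and at least 0.01%.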

B1: WGMELAASRRFSWDHHSAGGPPRVPSVRSGAAQVQPKDPLPLRTLAGCLARTAHLRPGAESLPQPQLHCT (peptide, listed as Homo sapiens)
chain: WGMELAASRRFSWDHHSAGGPPRVPSVRSGAAQVQPKDPLPLRTLAGCLARTAHLRPGAESLPQPQLHCT
notes: INCA1->CAMTA2 gene fusion
- Maximum Fold Change Over Background CD4+ cells: 7.15
- Maximum Fold Change Over Background CD8+ cells: 1.89
- Maximum Frequency of TNFα/IFNγ Double Positive CD4+ T cells: 0.04
- Maximum Frequency of TNFα/IFNγ Double Positive CD8+ T cells: 0.08

B2: LQAAASGQGKQGVPCPWGCCAYAESPRALISGDAPSQVEREVPGPCLNTHSLSHRSPQLPGLPHPKQPSV (peptide, listed as Homo sapiens)
chain: LQAAASGQGKQGVPCPWGCCAYAESPRALISGDAPSQVEREVPGPCLNTHSLSHRSPQLPGLPHPKQPSV
notes: TONSL alternative splicing
- Max. Fold Change over background CD4+ TNFαINFγ double positive DP: 7.86
- Max. Fold Change over background CD8+ TNFαINFγ double positive DP: 2.61
- Max. Frequency of CD4+ TNFαINFγ DP: 0.11
- Max. Frequency of CD8+ TNFαINFγ DP: 0.1

B3: LWFQSSELSPTGAPWPSRRPTWRGTTVSPRTATSSARTCCGTKWPSSQEAALGLGSGLLRFSCGTAAIR (peptide, listed as Homo sapiens)
chain: LWFQSSELSPTGAPWPSRRPTWRGTTVSPRTATSSARTCCGTKWPSSQEAALGLGSGLLRFSCGTAAIR
notes: NME4->DECR2 gene fusion
- Maximum Fold Change Over Background CD4+ cells: 36.13
- Maximum Fold Change Over Background CD8+ cells: 8.89
- Maximum Frequency of TNFα/IFNγ Double Positive CD4+ T cells: 0.04
- Maximum Frequency of TNFα/IFNγ Double Positive CD8+ T cells: 0.16

B4: YAYKDFLWCFPFSLVFLQEIQICCHVSCLCCICCSTRICLGCLLELFLSRALRALHVLWNGFQLHCQ (peptide, listed as Homo sapiens)
chain: YAYKDFLWCFPFSLVFLQEIQICCHVSCLCCICCSTRICLGCLLELFLSRALRALHVLWNGFQLHCQ
- Maximum Fold Change Over Background CD4+ cells: 111.97
- Maximum Fold Change Over Background CD8+ cells: 4.17
- Maximum Frequency of TNFα/IFNγ Double Positive CD4+ T cells: 0.87
- Maximum Frequency of TNFα/IFNγ Double Positive CD8+ T cells: 0.08

B5: LLEPFRRGEPGPRGLLSGSSRGGEGPGRSIEAAPATPLPCCRKNPCRPQPSRFLPPRVLLVIILPKLDCPKLGF (peptide, listed as Homo sapiens)
chain: LLEPFRRGEPGPRGLLSGSSRGGEGPGRSIEAAPATPLPCCRKNPCRPQPSRFLPPRVLLVIILPKLDCPKLGF
notes: AMACR alternative splicing
- Max. Fold Change over background CD4+ TNFαINFγ double positive DP: 60.93
- Max. Fold Change over background CD8+ TNFαINFγ double positive DP: 11.32
- Max. Frequency of CD4+ TNFαINFγ DP: 0.23
- Max. Frequency of CD8+ TNFαINFγ DP: 0.43

B6: HYKLIQQPISLFSITDRLHKTFSQLPSVHLCSITFQWGHPPIFCSTNDICVTANFCISVTFLKPCFLLHEASASQ (peptide, listed as Homo sapiens)
chain: HYKLIQQPISLFSITDRLHKTFSQLPSVHLCSITFQWGHPPIFCSTNDICVTANFCISVTFLKPCFLLHEASASQ
- Maximum Fold Change Over Background CD4+ cells: 50.19
- Maximum Fold Change Over Background CD8+ cells: 5.56
- Maximum Frequency of TNFα/IFNγ Double Positive CD4+ T cells: 0.39
- Maximum Frequency of TNFα/IFNγ Double Positive CD8+ T cells: 0.1

B7: QNLQNGGGSRSSATLPGRRRRRWLRRRRQPISVAPAGPPRRPNQKPNPPGGARCVIMRPTWPGTSAFT (peptide, listed as Homo sapiens)
chain: QNLQNGGGSRSSATLPGRRRRRWLRRRRQPISVAPAGPPRRPNQKPNPPGGARCVIMRPTWPGTSAFT
notes: ZFHX3 E763Sfs*61
- Maximum Fold Change Over Background CD4+ cells: 4.89
- Maximum Fold Change Over Background CD8+ cells: 7.92
- Maximum Frequency of TNFα/IFNγ Double Positive CD4+ T cells: 0.04
- Maximum Frequency of TNFα/IFNγ Double Positive CD8+ T cells: 0.38

B8: KMRAIQAEGGHGQACCGGAWGWAPGDGGPQGMLTHTLPTLGFQSAWTWRREDADRAWRTPKACASRRWSI (peptide, listed as Homo sapiens)
chain: KMRAIQAEGGHGQACCGGAWGWAPGDGGPQGMLTHTLPTLGFQSAWTWRREDADRAWRTPKACASRRWSI
notes: LRRC45 alternative splicing
- Max. Fold Change over background CD4+ TNFαINFγ double positive DP: 9.48
- Max. Fold Change over background CD8+ TNFαINFγ double positive DP: 16.25
- Max. Frequency of CD4+ TNFαINFγ DP: 0.01
- Max. Frequency of CD8+ TNFαINFγ DP: 0.26
